Measurements as given in US5385885A, “Inhibition of smooth muscle cell proliferation by antistasin and tick anticoagulant peptide” (priority 1991, dated 1995).

Tests used:
[1] = tested on: rat aortic smooth muscle cells; assay: Mitogenic activity of blood coagulation factors on smooth muscle cells (3H-thymidine incorporation); type: cell-based, Wistar rats; conditions: 24 h
Method: Primary smooth muscle cell cultures were prepared from the thoracic and abdominal aorta of 2-3 month old Wistar rats essentially using the procedure of Reilly, C. […] After removing as much fat and adherent adventitia as possible with scissors and forceps, the tissue was finely minced, enzymatically dissociated with successive 37° C. incubations in HBSS containing collagenase (Sigma, 0.5 mg/ml for 15 min.), then elastase (Sigma, 0.125 mg/ml for 30 min.) and again collagenase (60 min.). […] Cells were grown in Dulbecco's Minimal Essential Medium (DMEM) containing 10% fetal bovine serum (FBS) with antibiotics. […] Using a monoclonal antibody to alpha actin (Sigma Chemical Company, St. Louis, Mo.), about 60-80% (preparation dependent) of these confluent cells stained positive for this smooth muscle cell marker. After 10 days in culture, the cells were dissociated with trypsinethylene diamine tetraacetate (EDTA), split 1:10 and subcultured in the above medium. At confluence the cells were transferred to DMEM containing 0.1 % FBS for a 24 hour period before using them for assay. All smooth muscle cells used in these studies were from passages 1-4.
The prepared rat smooth muscle cells were seeded in Falcon 24 multiwell plates (10^5 cells/well) and cultured at 37° C., in a 5% CO2 atmosphere in 1 ml DMEM containing 10% FBS. […] At the end of the incubation, the cultures were washed twice with DMEM and pulsed for two hours in ^3 H-thymidine (1 μCi/ml) in DMEM containing 0.1% BSA. The cells were washed twice with cold phosphate buffered saline (PBS), treated twice with 5% trichloroacetic acid (TCA) for 5 min., dissolved with 0.25N NaOH (0.4 ml) incubated at 37° C. for 60 min., mixed with 5 ml Ecolume (ICN Biomedicals, Costa Mesa, Calif.), and their radioactivity determined in a scintillation counter. All assays were in triplicate. Error bars represent the standard error of the mean (S.E.M. with n=6 or more experiments). Smooth muscle cell mitogenic activity produced by exogenous agents is expressed as % relative mitogenic activity which is defined as: [formula] […]

[2] = tested on: rat aortic smooth muscle cells; assay: Comparison of 3H-thymidine incorporation and cell proliferation in rat aortic smooth muscle cell cultures; type: cell-based; conditions: 10 mM factor, 36 hours treatment
Method: Rat smooth muscle cells were incubated with different blood coagulation factors to determine ^3 H-thymidine incorporation and effect cell number. […] At the end of the incubation, half of the groups were pulsed with ^3 H-thymidine for two hours while their identically treated counterparts were dissociated with trypsin and the cells (smooth muscle cells on the basis of a reddish-brown staining pattern with Masson's trichome) were counted. Although there was not a direct correspondence between the per cent increase in thymidine incorporation and cell number, the increase in DNA synthesis correlated well with an increase in cell number. bovine factor Xa increased cell proliferation in a dose dependent manner. 10 mM Protein S induced greater cell proliferation than 50 mM bovine factor Xa.

[3] = tested on: smooth muscle cells; assay: Effect of factor Xa inhibitors on human protein S and bovine factor X induced smooth muscle cell mitogenesis; type: cell-based, rat; conditions: FIG. 3
Method: Primary smooth muscle cell cultures were prepared from the thoracic and abdominal aorta of 2-3 month old Wistar rats essentially using the procedure of Reilly, C. F. (1990) J. Cell Physiol. 142,342 (1990). After removing as much fat and adherent adventitia as possible with scissors and forceps, the tissue was finely minced, enzymatically dissociated with successive 37° C. incubations in HBSS containing collagenase (Sigma, 0.5 mg/ml for 15 min.), then elastase (Sigma, 0.125 mg/ml for 30 min.) and again collagenase (60 min.). […] Cells were grown in Dulbecco's Minimal Essential Medium (DMEM) containing 10% fetal bovine serum (FBS) with antibiotics. […]
(§1) The prepared rat smooth muscle cells were seeded in Falcon 24 multiwell plates (10^5 cells/well) and cultured at 37° C., in a 5% CO2 atmosphere in 1 ml DMEM containing 10% FBS. […] The cells were washed twice with cold phosphate buffered saline (PBS), treated twice with 5% trichloroacetic acid (TCA) for 5 min., dissolved with 0.25N NaOH (0.4 ml) incubated at 37° C. for 60 min., mixed with 5 ml Ecolume (ICN Biomedicals, Costa Mesa, Calif.), and their radioactivity determined in a scintillation counter. […] Smooth muscle cell mitogenic activity produced by exogenous agents is expressed as % relative mitogenic activity which is defined as: [formula] […]

[4] = tested on: smooth muscle cells; assay: Effect of antistasin and tick anticoagulant peptide on factor Xa induced mitogenesis of smooth muscle cells; type: cell-based, rat; conditions: FIG. 2
Method: Primary smooth muscle cell cultures were prepared from the thoracic and abdominal aorta of 2-3 month old Wistar rats essentially using the procedure of Reilly, C. F. (1990) J. Cell Physiol. 142,342 (1990). After removing as much fat and adherent adventitia as possible with scissors and forceps, the tissue was finely minced, enzymatically dissociated with successive 37° C. incubations in HBSS containing collagenase (Sigma, 0.5 mg/ml for 15 min.), then elastase (Sigma, 0.125 mg/ml for 30 min.) and again collagenase (60 min.). […] Cells were grown in Dulbecco's Minimal Essential Medium (DMEM) containing 10% fetal bovine serum (FBS) with antibiotics. […] Using a monoclonal antibody to alpha actin (Sigma Chemical Company, St. Louis, Mo.), about 60-80% (preparation dependent) of these confluent cells stained positive for this smooth muscle cell marker. After 10 days in culture, the cells were dissociated with trypsinethylene diamine tetraacetate (EDTA), split 1:10 and subcultured in the above medium. At confluence the cells were transferred to DMEM containing 0.1 % FBS for a 24 hour period before using them for assay. […]
as §1
The effects of antistasin and tick anticoagulant peptide on factor Xa induced mitogenesis of smooth muscle cells were tested using the method shown in Example 4. […] At the end of the 24 hour incubation, ^3 H-thymidine incorporation into DNA was monitored and smooth muscle cell mitogenic activity was assessed as described in Example 4.

[5] = tested on: human venous endothelial cells; assay: Release of mitogens from endothelial cells stimulated with factor Xa; conditioned media tested for mitogenic activity on 3T3 cells; type: cell-based; conditions: for Mitogenic units of EC conditioned media: 1 unit = activity induced by 2 ng/ml PDGF, FXa 1 nM, ATS 5 nM, PDGF 2 ng/ml, 16 h
Method: Confluent primary cultures or subcultures (passages 1 and 2) of human venous endothelial cells (EC) were cultured in serum-free Dulbecco's Minimal Essential Medium (DMEM)+0.1% bovine serum albumin (BSA) in the presence of human or bovine factor Xa(1 nM) (Sigma Chemical Co., St. Louis, Mo.), antistasin (ATS) (0.5-5.0 nM), or both. Control cultures were untreated or received 2 ng/ml platelet-derived growth factor (PDGF) (Sigma Chemical Co., St. Louis, Mo.). After 16 hours incubation at 37° C., the conditioned media (CM) from the test and control cell cultures were collected and tested for mitogenic activity (MIT) using confluent NIH 3T3 cells (CCL 163, American Type Culture Collection, Rockville, Md.).
Primary cultures of EC derived from umbilical cord veins were prepared and grown according to a protocol provided to by Dr. Gwendolyn Stewart (Temple University Thrombosis Center, Phila., Pa.). After washing the lumen of the vein twice with DMEM, EC were dissociated with a solution containing 0.05% trypsin and 0.1% collagenase. Thirty minutes later, the venous content and the perfused DMEM (35 ml) was collected into a fifty ml centrifuge tube containing 3.5 ml of bovine serum and the mixture spun at 900 rpm for 10 minutes. The supernate was discarded and the cell pellet resuspended in 3.0 ml DMEM containing 20% fetal bovine serum (FBS) (heat inactivated at 56° C. for 30 minutes), 90 μg heparin per ml, 5 μg fibronectin per ml, and 60 μg endothelial growth factor per ml (cDMEM), and seeded into 35 mm tissue culture dishes. After 24 hours of incubation at 37 °C, 5% CO2, the culture was washed 3-4 times with DMEM and incubated 2-4 days until the cells were confluent. The monolayers were washed with phosphate buffered saline (PBS) and cultured in DMEM with 0.1% BSA in the presence and absence of 1 nM factor Xa, 5 nM antistasin, or a mixture of both. As positive and negative controls, separated monolayers were incubated with the medium plus 2 ng/ml PDGF or with the medium alone. After 16 hours of incubation at 37° C., conditioned media (CM) were collected, centrifuged at 4000×g for 10 minutes, and the supernate was collected and stored at 4° C. until use. The mitogenic activity of the CM was tested by measuring the incorporation of [^3 H] thymidine into cultures of Balb 3T3 cells. For this purpose, wells were seeded with 2×10^4 3T3 cells suspended in 1 ml DMEM with 10% FBS. Once confluent (5-7 days of culture), CM were added and cells incubated for 18 hours at 37° C. after which cultures were washed with warm DMEM, tritiated thymidine added (1 μCi/ml) and cells incubated for 4 hours at 37° C. After removing the medium, the culture was washed twice with cold 5% trichloroacetic acid (TCA), and lysed with 0.8 ml 0.25M NaOH. The lysate was transferred to vials with scintillation fluid and radioactivity monitored in a beta radiation counter.
One unit of mitogenic activity is defined as the mitogenic activity induced by 2 ng/ml PDGF. Each assay was performed in triplicate and the standard deviation was less than 10%.

[6] = tested on: 3T3 cells; assay: Direct antistasin treatment of 3T3 cells, proliferation; type: cell-based
[7] = FIG. 1, 10 nM coagulation factor

B1: platelet derived growth factor BB: recombinant platelet-derived growth factor-BB, a good mitogen for smooth muscle cells (protein, UniProt P01127 82-190, looked up)
Platelet-derived growth …: SLGSLTIAEPAMIAECKTRTEVFEISRRLIDRTNANFLVWPPCVEVQRCSGCCNNRNVQCRPTQVQLRPVQVRKIEIVRKKPIFKKATVTLEDHLACKCETVAAARPVT
modifications: homodimer
notes: recombinant platelet-derived growth factor-BB, a good mitogen for smooth muscle cells
% relative mitogenic activity above control ([1]; FIG. 1, 0.1 nM PDGF-BB): about 63%

B2: protein S: human protein S, coagulation cascade factor (Enzyme Res. Labs) (protein, UniProt P07225 42-676, looked up)
Vitamin K-dependent protein S: ANSLLEETKQGNLERECIEELCNKEEAREVFENDPETDYFYPKYLVCLRSFQTGLFTAARQSTNAYPDLRSCVNAIPDQCSPLPCNEDGYMSCKDGKASFTCTCKPGWQGEKCEFDINECKDPSNINGGCSQICDNTPGSYHCSCKNGFVMLSNKKDCKDVDECSLKPSICGTAVCKNIPGDFECECPEGYRYNLKSKSCEDIDECSENMCAQLCVNYPGGYTCYCDGKKGFKLAQDQKSCEVVSVCLPLNLDTKYELLYLAEQFAGVVLYLKFRLPEISRFSAEFDFRTYDSEGVILYAESIDHSAWLLIALRGGKIEVQLKNEHTSKITTGGDVINNGLWNMVSVEELEHSISIKIAKEAVMDINKPGPLFKPENGLLETKVYFAGFPRKVESELIKPINPRLDGCIRSWNLMKQGASGIKEIIQEKQNKHCLVTVEKGSYYPGSGIAQFHIDYNNVSSAEGWHVNVTLNIRPSTGTGVMLALVSGNNTVPFAVSLVDSTSEKSQDILLSVENTVIYRIQALSLCSDQQSHLEFRVNRNNLELSTPLKIETISHEDLQRQLAVLDKAMKAKVATYLGGLPDVPFSATPVNAFYNGCMEVNINGVQLDLDEAISKHNDIRAHSCPSVWKKTKNS
% relative mitogenic activity above control [1, 7]: about 122%
SMC Number [2]: 6.5 × 10^5
CPM Incorporated (3H-thymidine) ([2]; 2 h pulse): 30,074 ± 2,837 CPM

B3: Factor IX: bovine coagulation factor IX (protein, UniProt P00741 26-462, looked up)
Coagulation factor IX: AECTVFLDRENATKILHRPKRYNSGKLEEFVRGNLERECKEEKCSFEEAREVFENTEKTTEFWKQYVDGDQCESNPCLNGGMCKDDINSYECWCQAGFEGTNCELDATCSIKNGRCKQFCKRDTDNKVVCSCTDGYRLAEDQKSCEPAVPFPCGRVSVSHISKKLTRAETIFSNTNYENSSEAEIIWDNVTQSNQSFDEFSRVVGGEDAERGQFPWQVLLHGEIAAFCGGSIVNEKWVVTAAHCIKPGVKITVVAGEHNTEKPEPTEQKRNVIRAIPYHSYNASINKYSHDIALLELDEPLELNSYVTPICIADRDYTNIFLKFGYGYVSGWGKVFNRGRSASILQYLKVPLVDRATCLRSTKFSIYSHMFCAGYHEGGKDSCQGDSGGPHVTEVEGTSFLTGIISWGEECAMKGKYGIYTKVSRYVNWIKEKTKLT
% relative mitogenic activity above control [1, 7]: only weakly mitogenic

B4: antistasin (protein, UniProt P15358 18-136, looked up)
Antistasin: QGPFGPGCEEAGCPEGSACNIITDRCTCSGVRCRMHCPHGFQRSRYGCEFCKCRLEPMKATCDISECPEGMMCSRLTNKCDCKIDINCRKTCPNGLKRDKLGCEYCECRPKRKLIPRLS
notes: 119-amino acid protein isolated from the salivary glands of the Mexican leech Haementeria officinalis
Inhibition of relative mitogenic activity of bovine factor X ([3]; 10 nM bovine factor X with 50 nM antistasin): not significantly inhibited
Inhibition of relative mitogenic activity of protein S ([3]; protein S with 50 nM antistasin): abolished
Relative mitogenic activity above control ([4]; 10 nM fXa and 5 nM antistasin): about 23%
Relative mitogenic activity above control ([4]; 10 nM fXa and 10-20 nM antistasin): about 2%
Relative mitogenic activity above control ([4]; 10 nM fXa with 40-50 nM antistasin): near zero
Mitogenic units of EC conditioned media ([5]; EXP 1): 0.74 mitogenic units
Mitogenic units of EC conditioned media ([5]; EXP 2): 0.42 mitogenic units
Mitogenic units of EC conditioned media ([5]; EXP 3): 0.70 mitogenic units
Mitogenic units of EC conditioned media ([5]; EXP 4): 0.36 mitogenic units
Release of mitogens from endothelial cells ([5]; antistasin 0.5-10 nM): blocks the release of mitogens
Effect on proliferation of 3T3 cells [6]: no significant effect
